The test deals with I-E^k (mouse MHC class II molecule, α- and β-subunits, six-histidine-tagged) (mouse). Kind of test: peptide exchange induced by ultraviolet irradiation.

Our source for the percent of Lys99ANP–I-E^k converted into Cy3-labeled MCC–I-E^k values is paper PMC3645478.

Regarding “MCC peptide labeled with indocarbocyanine (Cy3)”, the percent of Lys99ANP–I-E^k converted into Cy3-labeled MCC–I-E^k is 30%.
